Test results as given in US20100317598A1 (University of California, published 2010).
Values belong to the binder of their own block, whether it stands above or below them.

Experiments:
[1] = molecular target: p53 (human, UniProt P04637 1-393); assay: cell-based or functional assay
[2] = molecular target: cytochrome C (human, UniProt P99999 2-105); assay: immunopurification of cytochrome C from transfected HBL-100 cells, quantified immunoblot for APAF-1
Chain of cytochrome C (P99999 2-105 limits assumed): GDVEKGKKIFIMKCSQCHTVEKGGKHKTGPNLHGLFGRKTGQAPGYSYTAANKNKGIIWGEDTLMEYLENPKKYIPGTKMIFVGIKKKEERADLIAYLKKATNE
Description: Immunoblots were quantified using a Kodak 4000 Imaging Station and software. […] Values were obtained from three independent experiments.
HBL-100 and MCF-7 cells were exposed to UV light (6,600 microwatt seconds per square centimeter), or treated with adriamycin (0.2 μg ml⁻¹) for 24 h. […] Immunoblots shown were quantified on a Kodak 4000 Imaging Station and software.

Chain of p53 (P04637 whole entry): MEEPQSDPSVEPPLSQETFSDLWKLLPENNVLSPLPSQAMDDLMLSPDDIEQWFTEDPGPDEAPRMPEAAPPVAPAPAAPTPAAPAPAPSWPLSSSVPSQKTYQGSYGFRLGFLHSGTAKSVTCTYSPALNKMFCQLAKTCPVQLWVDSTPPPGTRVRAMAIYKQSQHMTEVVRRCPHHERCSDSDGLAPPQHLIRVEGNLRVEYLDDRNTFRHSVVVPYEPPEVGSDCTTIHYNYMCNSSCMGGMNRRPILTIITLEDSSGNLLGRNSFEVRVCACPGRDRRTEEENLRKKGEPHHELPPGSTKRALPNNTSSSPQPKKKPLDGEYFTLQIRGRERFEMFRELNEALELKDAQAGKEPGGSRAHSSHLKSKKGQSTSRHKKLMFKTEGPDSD

- expression of p21 (immunoblot of immunopurified p21), HBL-100 cells [1]: 5 fold
- percentage of cells in apoptosis (annexin-V-FITC binding), HBL-100 cells [1]: > 10 fold
B1: HA-tag-BRCA1 (772-1292) (other, not shown: small tags and cut ends)
chain: VPGTDYGTQESISLLEVSTLGKAKTEPNKCVSQCAAFENPKGLIHGCSKDNRNDTEGFKYPLGHEVNHSRETSIEMEESELDAQYLQNTFKVSKRQSFAPFSNPGNAEEECATFSAHSGSLKKQSPKVTFECEQKEENQGKNESNIKPVQTVNITAGFPVVGQKDKPVDNAKCSIKGGSRFCLSSQFRGNETGLITPNKHGLLQNPYRIPPLFPIKSFVKTKCKKNLLEENFEEHSMSPEREMGNENIPSTVSTISRNNIRENVFKEASSSNINEVGSSTNEVGSSINEIGSSDENIQAELGRNRGPKLNAMLRLGVLQPEVYKQSLPGSNCKHPEIKKQEYEEVVQTVNTDFSPYLISDNLEQPMGSSHASQVCSETPDDLLDDGEIKEDTSFAENDIKESSAVFSKSVQKGELSRSPSPFTHTHLAQGYRRGAKKLESSEENLSSEDEELPCFQHLLFGKVNNIPSQSTRHSTVATECLSKNTEENLLSLKNSLNDCSNQVILAKASQEHHLSEETKCS

- fold increase of APAF-1 associated to cytochrome C (cells expressing BRCA1 (772-1292) against cells expressing control BRCA1 wt or BRCA1 (772-1036)) [2]: 3 fold
B2: APAF-1 (other, human, UniProt O14727 1-1248, looked up)
chain: MDAKARNCLLQHREALEKDIKTSYIMDHMISDGFLTISEEEKVRNEPTQQQRAAMLIKMILKKDNDSYVSFYNALLHEGYKDLAALLHDGIPVVSSSSGKDSVSGITSYVRTVLCEGGVPQRPVVFVTRKKLVNAIQQKLSKLKGEPGWVTIHGMAGCGKSVLAAEAVRDHSLLEGCFPGGVHWVSVGKQDKSGLLMKLQNLCTRLDQDESFSQRLPLNIEEAKDRLRILMLRKHPRSLLILDDVWDSWVLKAFDSQCQILLTTRDKSVTDSVMGPKYVVPVESSLGKEKGLEILSLFVNMKKADLPEQAHSIIKECKGSPLVVSLIGALLRDFPNRWEYYLKQLQNKQFKRIRKSSSYDYEALDEAMSISVEMLREDIKDYYTDLSILQKDVKVPTKVLCILWDMETEEVEDILQEFVNKSLLFCDRNGKSFRYYLHDLQVDFLTEKNCSQLQDLHKKIITQFQRYHQPHTLSPDQEDCMYWYNFLAYHMASAKMHKELCALMFSLDWIKAKTELVGPAHLIHEFVEYRHILDEKDCAVSENFQEFLSLNGHLLGRQPFPNIVQLGLCEPETSEVYQQAKLQAKQEVDNGMLYLEWINKKNITNLSRLVVRPHTDAVYHACFSEDGQRIASCGADKTLQVFKAETGEKLLEIKAHEDEVLCCAFSTDDRFIATCSVDKKVKIWNSMTGELVHTYDEHSEQVNCCHFTNSSHHLLLATGSSDCFLKLWDLNQKECRNTMFGHTNSVNHCRFSPDDKLLASCSADGTLKLWDATSANERKSINVKQFFLNLEDPQEDMEVIVKCCSWSADGARIMVAAKNKIFLFDIHTSGLLGEIHTGHHSTIQYCDFSPQNHLAVVALSQYCVELWNTDSRSKVADCRGHLSWVHGVMFSPDGSSFLTSSDDQTIRLWETKKVCKNSAVMLKQEVDVVFQENEVMVLAVDHIRRLQLINGRTGQIDYLTEAQVSCCCLSPHLQYIAFGDENGAIEILELVNNRIFQSRFQHKKTVWHIQFTADEKTLISSSDDAEIQVWNWQLDKCIFLRGHQETVKDFRLLKNSRLLSWSFDGTVKVWNIITGNKEKDFVCHQGTVLSCDISHDATKFSSTSADKTAKIWSFDLLLPLHELRGHNGCVRCSAFSVDSTLLATGDDNGEIRIWNVSNGELLHLCAPLSEEGAATHGGWVTDLCFSPDGKMLISAGGYIKWWNVVTGESSQTFYTNGTNLKKIHVSPDFKTYVTVDNLGILYILQTLE
